Tests used:
[1] = system: HLA class I on Daudi cells; test: Cell surface expression analysis of HLA class I by flow cytometry; type: binding, human; settings: B-lymphoblastic cells, FITC-labeled mAb
Method: (§1) Reactivity of 2D7 mAb in tumor cell lines and myeloma cells derived from multiple myeloma patients were assessed by flow cytometry.
(§2) The tumor cell lines used were prepared as follows. The myeloma cell line RPMI 8226, B lymphoblastic cell lines (IM-9, Raji, H S-Sultan, and Daudi), the T lymphoblastic cell line CEM, the chronic myeloid leukemia cell line K562, the lung adenocarcinoma cell line A549, the colon adenocarcinoma cell line COLO 201, and the gastric adenocarcinoma cell line MKN-1 were obtained from the Health Science Resources Bank (Osaka, Japan). The myeloma cell line U266-B1, the B lymphoblastic cell line ARH-77, the T-lymphoblastic cell line Jurkat the breast cancer cell line MCF-7, the hepatocellular carcinoma HepG2, the clear cell renal cell carcinoma Caki-2, and the malignant melanoma MeWo were obtained from the American Type Culture Collection (Manassas, Va.). The EBV-transformed B-cell line YN was a gift from Dr. Yasuhiko Nishioka (The University of Tokushima). These cell lines were cultured in an RPM-1640 medium (Sigma-Aldrich, St. Louis, Mo.) supplemented with 10% fetal calf serum (Gibco BRL, Grand Island, N.Y.) and penicillin (100 U/mL) under a humidified atmosphere of 5% CO2 at 37° C.
(§3) Cell surface expression analysis of HLA class I by flow cytometry was performed as follows using FITC-labeled 2D7 mAb or FITC-labeled anti-HLA-ABC common region mAb (Chemicon, San Diego, Calif.). The cells (5×10^5 cells) were washed twice with PBS, and then incubated on ice for 40 minutes with FITC-labeled 2D7 mAb or FITC-labeled anti-HLA-ABC common region mAb. MM patient-derived BMMCs were incubated on ice for 15 minutes with 2% γ globulin diluted in PBS, and stained with FITC-labeled 2D7 mAb and PE-labeled anti-CD38 mAb (BD Bioscience, San Jose, Calif.) for myeloma cell gating. Next, the cells were washed twice with PBS, and analyzed using an EPICS XL flow cytometer (Beckman Coulter, Japan). In several experiments, the cells were stimulated for 48 hours with IFNα or IFNγ prior to HLA class I expression analysis. HLA class I expression levels were evaluated as GeoMFI using the CellQuest software (BID Biosciences).

[2] = system: HLA class I on Raji cells; test: as above; type: binding, human; settings: B-lymphoblastic cells, FITC-labeled mAb
Method: as §1, §2, §3

HLA class I on CEM cells = test: as above; type: binding, human; settings: T-lymphoblastic cells, FITC-labeled mAb
Method: as §1, §2, §3

[3] = system: HLA class I on HepG2 cells; test: as above; type: binding, human; settings: HepG2, hepatocellular carcinoma; FITC-labeled mAb
Method: as §1, §2, §3

[4] = system: HLA class I on ARH77 cells; test: as above; type: binding, human; settings: ARH77, B-lymphoblastic cells; FITC-labeled mAb
Method: as §1, §2, §3

HLA class I on YN cells = test: as above; type: binding, human; settings: EBV-transformed B-cells, FITC-labeled mAb
Method: as §1, §2, §3

[5] = system: HLA class I on Jurkat cells; test: as above; type: binding, human; settings: T-lymphoblastic cells, FITC-labeled mAb
Method: as §1, §2, §3

[6] = system: HLA class I on HS-Sultan cells; test: as above; type: binding, human; settings: B-lymphoblastic cells, FITC-labeled mAb
Method: as §1, §2, §3

[7] = system: HLA class I on COLO 201 cells; test: as above; type: binding, human; settings: COLO 201, colon adenocarcinoma cells; FITC-labeled mAb
Method: as §1, §2, §3

[8] = system: HLA class I on A549 cells; test: as above; type: binding, human; settings: A549, lung adenocarcinoma cells; FITC-labeled mAb
Method: as §1, §2, §3

[9] = system: HLA class I on MKN-1 cells; test: as above; type: binding, human; settings: MKN-1, gastric adenocarcinoma cells; FITC-labeled mAb
Method: as §1, §2, §3

patient-derived MM cells = test: Cytotoxicity assay (Trypan Blue dye exclusion), patient-derived primary MM cells; type: cell-based, human; settings: newly isolated MM cells, in the presence of a secondary antibody
Method: […] Cell viabilities were determined by WST-8 assays or Trypan Blue exclusion assays. […] (B) The morphological observations of myeloma cells after 2D7-DB treatment are shown. Purified MM cells derived from patient No. 18 were cultured for 24 hours in the presence (1 μg/mL) or absence of 2D7-DB. Next, cells were fixed on glass slides and stained with light Giemsa (original magnification,×1000). (C) A graph indicating the cytotoxic activity of 2D7-DB on the patients' MM cells is shown. CD138-positive MM cells were purified from six patients, and the cells were cultured for 24 hours with 2D7-DB (0.1 or 1μg/mL). Cell viabilities were determined by Trypan Blue exclusion assays.
Patients' MM cells were prepared as follows. First clinical disease stage classification and diagnosis of MM patients were performed according to the Durie and Salmon classification (Durie, B. CT, and S. E. Salmon. 1975. “A clinical staging system for multiple myeloma. Correlation of measured myeloma cell mass with presenting clinical features, response to treatment, and survival,” Cancer, 36:842-854). […]
Cytotoxicity assays were performed as follows. […] Cell viabilities were measured by WST-8 assays (Kishida Chemical, Osaka, Japan) for the cell lines, and by Trypan Blue dye exclusion assays for patient-derived primary MM cells. […]

HLA-A on CD34+ cells = test: Two-color flow cytometry of a peripheral blood stem cell collection; type: binding, human; settings: CD34+ cells in a peripheral blood stem cell collection, n=3

B1: 2D7: monoclonal antibody obtained by immunizing human myeloma cells; recognizes HLA class I (HLA-A) (antibody, V domains shown)
VH: QVQLQQSGPELVKPGASVKMSCKASGYTFTDYFIHWVKQRPGQGLEWIGWIFPGDDTTDYNEKFRGKTTLTADKSSSTAYILLSSLTSEDSAMYFCVRSDDFDYWGQGTTLTVSS
VL: QIVLTQSPAIMSASPGEKVTITCSASSSVSYMHWFQQKPGTFPKLWIYSTSNLASGVPTRFSGSGSGTSYSLTISRMEAEDAATYYCQQRTSYPPTFGSGTKLEIK
Expression (geometric mean fluorescence intensity) [1]: 2 | Expression (geometric mean fluorescence intensity) [2]: 297 | Expression (geometric mean fluorescence intensity) (HLA class I on CEM cells): 72 | Expression (geometric mean fluorescence intensity) [3]: 33 | Expression (geometric mean fluorescence intensity) [4]: 3727 | Expression (geometric mean fluorescence intensity) (HLA class I on YN cells): 804 | Expression (geometric mean fluorescence intensity) [5]: 111 | Expression (geometric mean fluorescence intensity) [6]: 285 | Expression (geometric mean fluorescence intensity) [7]: 105 | Expression (geometric mean fluorescence intensity) [8]: 37 | Expression (geometric mean fluorescence intensity) [9]: 49 | cell viability (patient-derived MM cells): inhibited | HLA-A expression, GeoMFI (HLA-A on CD34+ cells): 109±16

Source: patent US20090022687A1, “Novel Pharmaceuticals That Use Anti-HLA Antibodies” (Chugai Seiyaku Kabushiki Kaisha, priority 2005, published 2009)
